Measurements published in publication doi:10.1101/701250.

Biological target: APC-TMR (Mus musculus) (UniProt Q61315)
Assay: TIRF microscopy in vitro motility assay

stoichiometry N: 2
Substance: APC-TMR, Q61315 1-2845
